According to patent publication US6534281:

Key:
[1] = molecular target: human proinsulin (human) (UniProt P01308); experiment: sandwich immunoassay, one-step, against C-peptide calibration; proinsulin 50 ng/ml; 9103 on particles, labeled antibody PEP-001
[2] = molecular target: human proinsulin (human) (UniProt P01308); experiment: sandwich immunoassay, one-step, against C-peptide calibration; proinsulin 400 ng/ml; 9103 on particles, labeled antibody 9101
[3] = molecular target: human proinsulin (human) (UniProt P01308); experiment: sandwich immunoassay, one-step, against C-peptide calibration; proinsulin 400 ng/ml; 9103 on particles, labeled antibody PEP-001
[4] = molecular target: human proinsulin (human) (UniProt P01308); experiment: sandwich immunoassay, two-step, against C-peptide calibration; proinsulin 400 ng/ml; 9103 on particles, labeled antibody 9101
[5] = molecular target: modified C-peptide (human C-peptide having Arg-Arg bound to its N-terminal and Lys-Arg bound to its C-terminal) (human); experiment: sandwich immunoassay, two-step, against C-peptide calibration; modified C-peptide 5 ng/ml; 9103 on particles, labeled antibody PEP-001
[6] = molecular target: human proinsulin (human) (UniProt P01308); experiment: sandwich immunoassay, two-step, against C-peptide calibration; proinsulin 50 ng/ml; 9103 on particles, labeled antibody PEP-001
[7] = molecular target: human proinsulin (human) (UniProt P01308); experiment: sandwich immunoassay, two-step, against C-peptide calibration; proinsulin 200 ng/ml; 9103 on particles, labeled antibody PEP-001
[8] = molecular target: human proinsulin (human) (UniProt P01308); experiment: sandwich immunoassay, two-step, against C-peptide calibration; proinsulin 200 ng/ml; 9103 on particles, labeled antibody 9101
[9] = molecular target: modified C-peptide (human C-peptide having Arg-Arg bound to its N-terminal and Lys-Arg bound to its C-terminal) (human); experiment: sandwich immunoassay, one-step, against C-peptide calibration; modified C-peptide 5 ng/ml; 9103 on particles, labeled antibody PEP-001
[10] = molecular target: modified C-peptide (human C-peptide having Arg-Arg bound to its N-terminal and Lys-Arg bound to its C-terminal) (human); experiment: sandwich immunoassay, one-step, against C-peptide calibration; modified C-peptide 5 ng/ml; 9103 on particles, labeled antibody 9101
[11] = molecular target: human proinsulin (human) (UniProt P01308); experiment: sandwich immunoassay, one-step, against C-peptide calibration; proinsulin 200 ng/ml; 9103 on particles, labeled antibody 9101
[12] = molecular target: human C-peptide (human); experiment: sandwich immunoassay, two-step; 9103 on particles, labeled antibody PEP-001
[13] = molecular target: human proinsulin (human) (UniProt P01308); experiment: sandwich immunoassay, one-step, against C-peptide calibration; proinsulin 50 ng/ml; 9103 on particles, labeled antibody 9101
[14] = molecular target: human C-peptide (human); experiment: sandwich immunoassay, one-step; 9103 on particles, labeled antibody 9101
[15] = molecular target: human C-peptide (human); experiment: sandwich immunoassay, two-step; 9103 on particles, labeled antibody 9101
[16] = molecular target: human C-peptide (human); experiment: sandwich immunoassay, one-step; 9103 on particles, labeled antibody PEP-001
[17] = molecular target: human proinsulin (human) (UniProt P01308); experiment: sandwich immunoassay, two-step, against C-peptide calibration; proinsulin 50 ng/ml; 9103 on particles, labeled antibody 9101
[18] = molecular target: modified C-peptide (human C-peptide having Arg-Arg bound to its N-terminal and Lys-Arg bound to its C-terminal) (human); experiment: sandwich immunoassay, two-step, against C-peptide calibration; modified C-peptide 5 ng/ml; 9103 on particles, labeled antibody 9101
[19] = molecular target: human proinsulin (human) (UniProt P01308); experiment: sandwich immunoassay, two-step, against C-peptide calibration; proinsulin 400 ng/ml; 9103 on particles, labeled antibody PEP-001
[20] = molecular target: human proinsulin (human) (UniProt P01308); experiment: sandwich immunoassay, one-step, against C-peptide calibration; proinsulin 200 ng/ml; 9103 on particles, labeled antibody PEP-001

modified C-peptide (human C-peptide having Arg-Arg bound to its N-terminal and Lys-Arg bound to its C-terminal) (human), sequence (peptide, as listed by the source): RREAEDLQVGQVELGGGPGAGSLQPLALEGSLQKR
UniProt P01308, sequence (P01308 25-110): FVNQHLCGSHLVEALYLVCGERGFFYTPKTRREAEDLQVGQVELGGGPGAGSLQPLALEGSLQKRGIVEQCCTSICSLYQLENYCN
human C-peptide (human), sequence (peptide, as listed by the source): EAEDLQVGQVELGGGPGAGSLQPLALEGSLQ

Substance: anti-human C-peptide monoclonal antibody 9103 (Medix Biochemica)
- Cross-reactivity (%) to Human Proinsulin [1]: 58%
- Cross-reactivity (%) to Human Proinsulin [2]: 6.9%
- Cross-reactivity (%) to Human Proinsulin [3]: > 15%
- Cross-reactivity (%) to Human Proinsulin [4]: 6.8%
- Cross-reactivity (%) to Modified C-peptide [5]: 38.6%
- Cross-reactivity (%) to Human Proinsulin [6]: 65.2%
- Cross-reactivity (%) to Human Proinsulin [7]: > 30%
- Cross-reactivity (%) to Human Proinsulin [8]: 4.4%
- Cross-reactivity (%) to Modified C-peptide [9]: 58.2%
- Cross-reactivity (%) to Modified C-peptide [10]: < 0.5%
- Cross-reactivity (%) to Human Proinsulin [11]: 5.8%
- 2S/N value [12]: 0.018 ng/mL
- Cross-reactivity (%) to Human Proinsulin [13]: 3.2%
- 2S/N value [14]: 0.117 ng/mL
- 2S/N value [15]: 0.167 ng/mL
- 2S/N value [16]: 0.009 ng/mL
- Cross-reactivity (%) to Human Proinsulin [17]: 2.3%
- Cross-reactivity (%) to Modified C-peptide [18]: < 0.5%
- Cross-reactivity (%) to Human Proinsulin [19]: > 15%
- Cross-reactivity (%) to Human Proinsulin [20]: > 30%
